From US20220195407, “OPTIMIZATION OF ENGINEERED MEGANUCLEASES FOR RECOGNITION SEQUENCES” (Precision BioSciences, Inc., published 2022) come the findings set out here.

Holding throughout (test): cell_activity; CHO iGFFP reporter
One series has as its target T1, LOX 3-4m.1780 (artificial (I-CreI derived)).
T1 chain: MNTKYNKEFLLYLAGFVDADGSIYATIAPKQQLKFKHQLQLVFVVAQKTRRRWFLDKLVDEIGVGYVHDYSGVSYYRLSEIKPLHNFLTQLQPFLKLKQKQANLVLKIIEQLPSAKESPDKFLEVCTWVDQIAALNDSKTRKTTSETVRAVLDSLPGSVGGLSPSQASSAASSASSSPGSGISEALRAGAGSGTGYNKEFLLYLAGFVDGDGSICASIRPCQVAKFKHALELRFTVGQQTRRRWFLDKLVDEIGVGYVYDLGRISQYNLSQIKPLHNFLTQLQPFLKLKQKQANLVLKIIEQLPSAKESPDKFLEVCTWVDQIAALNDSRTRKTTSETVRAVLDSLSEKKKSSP
From the text:
(§1) A CHO cell reporter system (see WO/2012/167192, FIG. 3) was used to determine whether the engineered meganucleases generated in these studies could recognize and cleave the modified LOX 3-4 recognition sequences in Table 87. To perform the assay, a pair of CHO cell reporter lines were produced, which carried a non-functional Green Fluorescent Protein (GFP) gene expression cassette integrated into the genome of the cell. The GFP gene in each cell line was interrupted by a pair of recognition sequences such that intracellular cleavage of either recognition sequence by a meganuclease would stimulate a homologous recombination event resulting in a functional GFP gene. In both cell lines, one of the recognition sequences was derived from the LOX 3-4 recognition sequence (i.e., those sequences disclosed in Table 87), and the second recognition sequence was specifically recognized by a control meganuclease called “CHO 23/24.” CHO reporter cells comprising a recognition sequence derived from the LOX 3-4 recognition sequence and the CHO 23/24 recognition sequence are referred to herein as “test cells.”
(§2) Novel engineered meganucleases derived from the LOX 3-4x.109 meganuclease were prepared by making amino acid substitutions at one or more positions in the first subunit and one or more positions in the second subunit. These engineered meganucleases were then evaluated for cleavage of the LOX 3-4 recognition sequence modified to have a GCGA center sequence (SEQ ID NO: 314) in the CHO reporter assay according to Example 1.

Another series addresses T2, LOX 3-4m.1781 (artificial (I-CreI derived)).
T2 chain: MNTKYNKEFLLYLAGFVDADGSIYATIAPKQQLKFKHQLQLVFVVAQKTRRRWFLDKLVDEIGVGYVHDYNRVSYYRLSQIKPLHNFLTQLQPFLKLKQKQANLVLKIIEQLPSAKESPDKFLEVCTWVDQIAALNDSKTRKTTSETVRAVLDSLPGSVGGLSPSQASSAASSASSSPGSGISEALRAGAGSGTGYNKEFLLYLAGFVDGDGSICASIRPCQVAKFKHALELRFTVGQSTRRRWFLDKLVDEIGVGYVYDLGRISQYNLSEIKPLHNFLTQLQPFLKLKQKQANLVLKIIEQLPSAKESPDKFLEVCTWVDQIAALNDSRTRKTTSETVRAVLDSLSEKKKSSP
Source text: as §1, §2

Another series deals with T3, LOX 3-4m.1745 (artificial (I-CreI derived)).
T3 chain: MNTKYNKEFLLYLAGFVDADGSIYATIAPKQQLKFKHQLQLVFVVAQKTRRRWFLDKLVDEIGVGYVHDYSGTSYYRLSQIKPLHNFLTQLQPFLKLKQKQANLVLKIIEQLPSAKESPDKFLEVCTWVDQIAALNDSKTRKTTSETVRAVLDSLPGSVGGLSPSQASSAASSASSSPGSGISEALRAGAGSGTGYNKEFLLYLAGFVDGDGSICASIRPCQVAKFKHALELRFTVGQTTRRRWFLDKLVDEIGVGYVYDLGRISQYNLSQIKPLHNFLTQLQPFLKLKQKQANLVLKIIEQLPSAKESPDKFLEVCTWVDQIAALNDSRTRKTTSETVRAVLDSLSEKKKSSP
Source text: as §1, §2

The target of another series is T4, LOX 3-4m.1782 (artificial (I-CreI derived)).
T4 chain: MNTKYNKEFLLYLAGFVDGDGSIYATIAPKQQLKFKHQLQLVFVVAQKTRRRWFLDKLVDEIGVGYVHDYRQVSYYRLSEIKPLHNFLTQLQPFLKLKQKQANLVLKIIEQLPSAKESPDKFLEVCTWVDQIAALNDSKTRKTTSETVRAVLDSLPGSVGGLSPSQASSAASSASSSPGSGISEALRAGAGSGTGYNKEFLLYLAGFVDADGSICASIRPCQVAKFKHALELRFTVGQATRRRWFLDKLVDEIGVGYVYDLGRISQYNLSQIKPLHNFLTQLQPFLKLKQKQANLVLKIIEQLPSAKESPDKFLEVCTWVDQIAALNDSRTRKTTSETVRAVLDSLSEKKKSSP
Source text: as §1, §2

Another series deals with T5, LOX 3-4m.1687 (artificial (I-CreI derived)).
T5 chain: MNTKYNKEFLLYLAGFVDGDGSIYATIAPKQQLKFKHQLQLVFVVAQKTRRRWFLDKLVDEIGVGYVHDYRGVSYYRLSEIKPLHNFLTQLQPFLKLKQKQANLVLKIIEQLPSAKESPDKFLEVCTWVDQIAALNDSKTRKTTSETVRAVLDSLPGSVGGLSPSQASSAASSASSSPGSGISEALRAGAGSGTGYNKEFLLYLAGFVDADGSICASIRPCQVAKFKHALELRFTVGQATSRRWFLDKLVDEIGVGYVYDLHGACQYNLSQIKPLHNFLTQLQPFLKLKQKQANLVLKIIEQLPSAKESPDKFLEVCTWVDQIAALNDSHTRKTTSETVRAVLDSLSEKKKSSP
Source text: as §1
as §2, with “GCAT” for “GCGA”, “292)” for “314)”, “1. The substitutions in each subunit are provided in Tables 151 and 152, respectively. Novel meganucleases which were modified to comprise the residues recited in the tables below continued to cleave the LOX 3-4 recognition sequence having a GCAT four base pair center sequence.” for “1.”

A further series concerns the target T6, LOX 3-4m.1679 (artificial (I-CreI derived)).
T6 chain: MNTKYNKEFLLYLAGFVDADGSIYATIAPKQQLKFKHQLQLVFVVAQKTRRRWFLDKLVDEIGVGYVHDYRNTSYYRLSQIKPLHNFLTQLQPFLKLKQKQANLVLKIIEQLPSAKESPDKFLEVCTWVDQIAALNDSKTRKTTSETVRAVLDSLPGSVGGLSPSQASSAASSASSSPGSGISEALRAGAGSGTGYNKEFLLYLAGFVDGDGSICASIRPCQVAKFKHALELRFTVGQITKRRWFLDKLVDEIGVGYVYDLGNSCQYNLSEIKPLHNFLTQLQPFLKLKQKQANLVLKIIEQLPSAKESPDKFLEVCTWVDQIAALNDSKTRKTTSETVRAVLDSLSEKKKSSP
Source text: as §1
as §2, with “GCAT” for “GCGA”, “292)” for “314)”, “1. The substitutions in each subunit are provided in Tables 151 and 152, respectively. Novel meganucleases which were modified to comprise the residues recited in the tables below continued to cleave the LOX 3-4 recognition sequence having a GCAT four base pair center sequence.” for “1.”

For a further series, the target named is T7, LOX 3-4m.1689 (artificial (I-CreI derived)).
T7 chain: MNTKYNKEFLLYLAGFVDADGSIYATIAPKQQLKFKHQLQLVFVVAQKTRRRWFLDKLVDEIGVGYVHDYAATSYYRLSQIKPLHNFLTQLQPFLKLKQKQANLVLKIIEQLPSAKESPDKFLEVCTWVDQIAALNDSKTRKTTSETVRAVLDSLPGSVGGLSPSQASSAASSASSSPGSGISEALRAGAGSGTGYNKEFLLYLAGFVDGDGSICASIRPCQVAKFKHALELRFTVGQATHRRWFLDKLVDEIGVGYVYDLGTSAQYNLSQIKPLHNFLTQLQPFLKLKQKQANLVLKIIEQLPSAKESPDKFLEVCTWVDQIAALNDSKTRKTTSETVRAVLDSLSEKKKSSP
Source text: as §1
as §2, with “GCAT” for “GCGA”, “292)” for “314)”, “1. The substitutions in each subunit are provided in Tables 151 and 152, respectively. Novel meganucleases which were modified to comprise the residues recited in the tables below continued to cleave the LOX 3-4 recognition sequence having a GCAT four base pair center sequence.” for “1.”

The target in another series is T8, LOX 3-4m.1601 (artificial (I-CreI derived)).
T8 chain: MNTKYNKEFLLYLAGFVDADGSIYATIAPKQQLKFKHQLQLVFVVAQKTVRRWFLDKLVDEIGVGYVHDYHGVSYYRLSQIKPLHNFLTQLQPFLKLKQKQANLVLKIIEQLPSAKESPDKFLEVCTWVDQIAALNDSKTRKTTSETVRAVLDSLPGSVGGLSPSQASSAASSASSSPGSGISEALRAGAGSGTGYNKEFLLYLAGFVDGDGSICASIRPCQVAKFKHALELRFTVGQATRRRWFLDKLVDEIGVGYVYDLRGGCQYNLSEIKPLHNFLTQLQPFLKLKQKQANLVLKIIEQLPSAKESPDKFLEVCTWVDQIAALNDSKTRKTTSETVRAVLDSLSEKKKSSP
Source text: as §1
as §2, with “GCAT” for “GCGA”, “292)” for “314)”, “1. The substitutions in each subunit are provided in Tables 151 and 152, respectively. Novel meganucleases which were modified to comprise the residues recited in the tables below continued to cleave the LOX 3-4 recognition sequence having a GCAT four base pair center sequence.” for “1.”

The target in a further series is T9, LOX 3-4 M.6 (artificial (I-CreI derived)).
T9 chain: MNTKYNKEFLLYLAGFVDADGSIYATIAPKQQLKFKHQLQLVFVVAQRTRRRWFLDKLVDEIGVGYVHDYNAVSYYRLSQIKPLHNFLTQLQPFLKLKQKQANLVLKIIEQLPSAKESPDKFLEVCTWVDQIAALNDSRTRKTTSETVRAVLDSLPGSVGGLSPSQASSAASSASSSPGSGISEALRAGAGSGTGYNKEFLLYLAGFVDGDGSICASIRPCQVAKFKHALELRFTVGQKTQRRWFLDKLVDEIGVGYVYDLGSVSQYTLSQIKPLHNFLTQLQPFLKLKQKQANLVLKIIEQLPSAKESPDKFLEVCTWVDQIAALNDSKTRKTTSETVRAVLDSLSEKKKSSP
Source text: as §1
(§3) Novel engineered meganucleases derived from the LOX 3-4x.109 meganuclease were prepared by making amino acid substitutions at one or more positions in the first subunit. These engineered meganucleases were then evaluated for cleavage of the LOX 3-4 recognition sequence modified to have a GTAA center sequence (SEQ ID NO: 358) in the CHO reporter assay according to Example 1. Novel meganucleases which were modified to comprise the residues recited in the tables below were capable of cleaving the LOX 3-4 recognition sequence having a GTAA four base pair center sequence.

The target in the next series is T10, LOX 3-4 M.15 (artificial (I-CreI derived)).
T10 chain: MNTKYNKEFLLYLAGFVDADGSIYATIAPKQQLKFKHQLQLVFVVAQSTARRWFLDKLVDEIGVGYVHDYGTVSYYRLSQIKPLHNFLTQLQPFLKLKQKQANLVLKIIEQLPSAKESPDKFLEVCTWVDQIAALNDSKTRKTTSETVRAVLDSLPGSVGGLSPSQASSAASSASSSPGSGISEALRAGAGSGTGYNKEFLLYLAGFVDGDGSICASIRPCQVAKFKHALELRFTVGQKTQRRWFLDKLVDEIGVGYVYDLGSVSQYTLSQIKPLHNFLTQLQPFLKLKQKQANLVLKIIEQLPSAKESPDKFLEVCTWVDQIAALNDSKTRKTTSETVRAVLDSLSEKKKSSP
Source text: as §1, §3

In the next series the target is T11, LOX 3-4 M.23 (artificial (I-CreI derived)).
T11 chain: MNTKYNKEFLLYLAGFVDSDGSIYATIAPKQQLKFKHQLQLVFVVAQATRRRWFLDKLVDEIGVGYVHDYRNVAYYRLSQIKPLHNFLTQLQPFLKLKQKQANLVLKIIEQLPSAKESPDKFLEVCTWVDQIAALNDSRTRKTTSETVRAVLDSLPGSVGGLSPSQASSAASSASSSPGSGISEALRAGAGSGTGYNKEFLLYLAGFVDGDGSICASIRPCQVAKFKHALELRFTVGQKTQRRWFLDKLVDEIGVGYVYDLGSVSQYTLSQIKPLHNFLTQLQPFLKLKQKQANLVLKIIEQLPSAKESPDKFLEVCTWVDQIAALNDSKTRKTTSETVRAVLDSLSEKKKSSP
Source text: as §1, §3

B1: LOX 3-4 GCGA (dsDNA)
DNA 1: GTATAGCATGCGATATACGAAG
DNA 2: CTTCGTATATCGCATGCTATAC
With B1, the activity with LOX 3-4m.1780 was 6.53 % GFP; in the series with LOX 3-4m.1781, 6.58 % GFP; with LOX 3-4m.1745 it was 5.13 % GFP; in the series with LOX 3-4m.1782 it was 5.45 % GFP.

B2: LOX 3-4 GCAT (dsDNA)
DNA 1: GTATAGCATGCATTATACGAAG
DNA 2: CTTCGTATAATGCATGCTATAC
Take B2: the activity worked out at 10.9 % GFP in the series with LOX 3-4m.1687, 10.8 % GFP with LOX 3-4m.1679, 11.2 % GFP in the series with LOX 3-4m.1689 and 10.9 % GFP in the series with LOX 3-4m.1601.

B3: LOX 3-4 GTAA (dsDNA)
DNA 1: GTATAGCATGTAATATACGAAG
DNA 2: CTTCGTATATTACATGCTATAC
For B3, the activity with LOX 3-4 M.6 was 11.4 % GFP; with LOX 3-4 M.15, 11.5 % GFP; with LOX 3-4 M.23, 13.2 % GFP.
